For orientation: Kd means the free concentration of one partner at which half of the binding sites on the other are occupied at equilibrium, for simple one-to-one binding.

These results are taken from patent US20230265199A1.

B1: Trap M (Human, NRP1-His-Δb2c-short) (receptor)
chain: FRNDKCGDTIKIESPGYLTSPGYPHSYHPSEKCEWLIQAPDPYQRIMINFNPHFDLEDRDCKYDYVEVFDGENENGHFRGKFCGKIAPPPVVSSGPFLFIKFVSDYETHGAGFSIRYELFKRGPECSQNYTTPSGVIKSPGFPEKYPNSLECTYIVFAPKMSEIILEFESFDLEPDSNPPGGMFCRYDRLEIWDGFPDVGPHIGRYCGQKTPGRIRSSSGILSMVFYTDSAIAKEGFSANYSVLQSSVSEDFKCMEALGMESGEIHSDQITASSQYSTNWSAERSRLNYPENGWTPGEDSYREWIQVDLGLLRFVTAVGTQGAISKETKKKYYVKTYKIDVSSNGEDWITIKEGNKPVLFQGNTNPTDVVVAVFPKPLITRFVRIKPATWETGISMRFEVYGCRSGSKENLYFQGHHHHHH
B2: Trap Z (Human, "full" extracellular domain NRP1-His, VEGF165-Low, E319K/D320K mutations) (receptor)
chain: FRNDKCGDTIKIESPGYLTSPGYPHSYHPSEKCEWLIQAPDPYQRIMINFNPHFDLEDRDCKYDYVEVFDGENENGHFRGKFCGKIAPPPVVSSGPFLFIKFVSDYETHGAGFSIRYELFKRGPECSQNYTTPSGVIKSPGFPEKYPNSLECTYIVFAPKMSEIILEFESFDLEPDSNPPGGMFCRYDRLEIWDGFPDVGPHIGRYCGQKTPGRIRSSSGILSMVFYTDSAIAKEGFSANYSVLQSSVSEDFKCMEALGMESGEIHSDQITASSQYSTNWSAERSRLNYPENGWTPGKKSYREWIQVDLGLLRFVTAVGTQGAISKETKKKYYVKTYKIDVSSNGEDWITIKEGNKPVLFQGNTNPTDVVVAVFPKPLITRFVRIKPATWETGISMRFEVYGCKITDYPCSGMLGMVSGLISDSQITSSNQGDRNWMPENIRLVTSRSGWALPPAPHSYINEWLQIDLGEEKIVRGIIIQGGKHRENKVFMRKFKIGYSNNGSDWKMIMDDSKRKAKSFEGNNNYDTPELRTFPALSTRFIRIYPERATHGGLGLRMELLGCEVEAPTAGPTTPNGNLVDECDDDQANCHSGTGDDFQLTGGTTVLATEKPTVIDSTIQSEFPTYGFNCEFGWGSHKTFCHWEHDNHVQLKWSVLTSKTGPIQDHTGDGNFIYSQADENQKGKVARLVSPVVYSQNSAHCMTFWYHMSGSHVGTLRVKLRYQKPEEYDQLVWMAIGHQGDHWKEGRVLLHKSLKLYQVIFEGEIGKGNLGGIAVDDISINNHISQEDCAKPADLDKKNPEIKIDETGSTPGYEGEGEGDKNISRKPGNVLKTLDPRSGSKENLYFQGHHHHHH
B3: Trap R (Human, NRP1-His-Δc-VEGF low) (receptor)
chain: FRNDKCGDTIKIESPGYLTSPGYPHSYHPSEKCEWLIQAPDPYQRIMINFNPHFDLEDRDCKYDYVEVFDGENENGHFRGKFCGKIAPPPVVSSGPFLFIKFVSDYETHGAGFSIRYELFKRGPECSQNYTTPSGVIKSPGFPEKYPNSLECTYIVFAPKMSEIILEFESFDLEPDSNPPGGMFCRYDRLEIWDGFPDVGPHIGRYCGQKTPGRIRSSSGILSMVFYTDSAIAKEGFSANYSVLQSSVSEDFKCMEALGMESGEIHSDQITASSQASTNWSAERSRLNYPENGWTPGEDSYREWIQVDLGLLRFVTAVGTQGAISKETKKKYYVKTYKIDVSSNGEDWITIKEGNKPVLFQGNTNPTDVVVAVFPKPLITRFVRIKPATWETGISMRFEVYGCKITDYPCSGMLGMVSGLISDSQITSSNQGDRNWMPENIRLVTSRSGWALPPAPHSYINEWLQIDLGEEKIVRGIIIQGGKHRENKVFMRKFKIGYSNNGSDWKMIMDDSKRKAKSFEGNNNYDTPELRTFPALSTRFIRIYPERATHGGLGLRMELLGCEVEAPTAGPTTPNGNLVDECDDDQANCHSGTGDDFQLTGGTTVLATEKPTVIDSTIQSEFPTYGFNCEFGWGSHKTFCHWEHDNHVQLKWSVLTSKTGPIQDHTGDGNFIYSQADENQKGKVARLVSPVVYSQNSAHCMTFWYHMSGSHVGTLRVKLRYQKPEEYDQLVWMAIGHQGDHWKEGRVLLHKSLKLYQVIFEGEIGKGNLGGIAVDDISINNHISQEDCAKPADLDKKNPEIKIDETGSTPGYEGEGEGDKNISRKPGNVLKTLDPRSGSKENLYFQGHHHHHH
B4: Trap AC (Human, "full" extracellular domain NRP1-His-VEGF-low, D320K mutation) (receptor)
chain: FRNDKCGDTIKIESPGYLTSPGYPHSYHPSEKCEWLIQAPDPYQRIMINFNPHFDLEDRDCKYDYVEVFDGENENGHFRGKFCGKIAPPPVVSSGPFLFIKFVSDYETHGAGFSIRYELFKRGPECSQNYTTPSGVIKSPGFPEKYPNSLECTYIVFAPKMSEIILEFESFDLEPDSNPPGGMFCRYDRLEIWDGFPDVGPHIGRYCGQKTPGRIRSSSGILSMVFYTDSAIAKEGFSANYSVLQSSVSEDFKCMEALGMESGEIHSDQITASSQYSTNWSAERSRLNYPENGWTPGEKSYREWIQVDLGLLRFVTAVGTQGAISKETKKKYYVKTYKIDVSSNGEDWITIKEGNKPVLFQGNTNPTDVVVAVFPKPLITRFVRIKPATWETGISMRFEVYGCKITDYPCSGMLGMVSGLISDSQITSSNQGDRNWMPENIRLVTSRSGWALPPAPHSYINEWLQIDLGEEKIVRGIIIQGGKHRENKVFMRKFKIGYSNNGSDWKMIMDDSKRKAKSFEGNNNYDTPELRTFPALSTRFIRIYPERATHGGLGLRMELLGCEVEAPTAGPTTPNGNLVDECDDDQANCHSGTGDDFQLTGGTTVLATEKPTVIDSTIQSEFPTYGFNCEFGWGSHKTFCHWEHDNHVQLKWSVLTSKTGPIQDHTGDGNFIYSQADENQKGKVARLVSPVVYSQNSAHCMTFWYHMSGSHVGTLRVKLRYQKPEEYDQLVWMAIGHQGDHWKEGRVLLHKSLKLYQVIFEGEIGKGNLGGIAVDDISINNHISQEDCAKPADLDKKNPEIKIDETGSTPGYEGEGEGDKNISRKPGNVLKTLDPRSGSKENLYFQGHHHHHH

The target in this assay is Recombinant human SEMA3A Fc chimera (R&D Systems) (human) (UniProt Q14563). Kind of assay: plate saturation binding; trap coated, SEMA3A-FC titrated, HRP anti-human IgG chemiluminescence, non-linear fit.
Take “Trap G (Human, "full" extracellular domain NRP1-His) (from UniProt O14786 22-856) (receptor)”: the Kd was determined as 0.8 nM.

In the case of “Trap O (Human, NRP1-His-Δc-short) (from UniProt O14786 22-583) (receptor)”, the Kd came to 1.05 nM.

Take B1: the Kd was determined as 0.95 nM.

For the molecule B2, the Kd turned out to be 4.44 nM.

B3: the Kd was determined as 6.15 nM.

Turning to B4, the Kd was determined as 4 nM.
